# Patent publication USRE38313
# Experiments:
# [1] = target: human MHC Class II molecules expressed on cells (human); assay: cell-based or functional assay
# [2] = target: human MHC Class II molecules expressed on cells (human); assay: flow cytometry on Daudi cells, GAH-FITC detection, no preincubation
# [3] = target: human MHC Class II molecules expressed on cells (human); assay: flow cytometry on Daudi cells preincubated with the competitor soluble CHO/LAG-3D1D2, GAH-FITC detection
# [4] = target: human MHC Class II molecules expressed on cells (human); assay: competition by flow cytometry on Daudi cells; soluble CHO/LAG-3D1D2 first, then dimeric LAG-3D1D4Ig
# [5] = target: human MHC Class II molecules expressed on cells (human); assay: competition by flow cytometry on Daudi cells; soluble CHO/LAG-3D1D2 first, then monomeric LAG-3D1D2Ig
inhibition of the proliferation of clone T154 preincubated with cross-linked LAG-3Ig [1],Mean Fluorescence [2],Mean Fluorescence [3],percent inhibition of the binding of dimeric LAG-3D1D4Ig [4],percent inhibition of the binding of monomeric LAG-3D1D2Ig [5],Substance
> 50%,20.8,8.5,,,LAG-3 D1-D4 Ig (from UniProt P01857 99-330) (Fc fusion)
,62.5,,,,LAG-3 D1D2 Ig (from UniProt P01857 99-330) (Fc fusion)
,,,58%,27%,soluble LAG-3 D1D2 fragment produced by CHO cells (receptor)
